Data published in patent US20250026813A1 (published 2025).
Changes are numbered by the printed parent chain.

B1: YANG-1112 (antibody, V domains shown)
VH: QITLKESGPTLVKPTQTLTLTCTFSGFSLSTGGVAVGWIRQPPGKALEWLAIIYWDDDKRYSPSLKSRLTITKDTSKNQVVLTMTNMDPVDTATYYCAHWGKDSFDIWGQGTMVTVSS
VL: SYELTQPPSVSVSPGQTARITCSGDALPRKYAYWYQQKSGQAPVLVIYEDNNRPSGIPERFSGSSSGTTATLTVSGAQVEDEADYYCYSTDTSGYVVFGGGTKLTVL
B2: IMPI-006 (antibody, V domains shown)
VH: QLQLQESGPGLVKPSETLSLTCTVSGGSISNSNYYWGWIRQPPGKGLEWIGSIYYSGRTYYNPSLKSRVTISVDTSKNQFSLKLSSVTAADTAVYYCARMGLLWFGEFYGMDVWGQGTTVTVSS
VL: DIQMTQSPSSLSASVGDRVTITCRASQGISSWLAWYQQKPEKAPKSLIYDASSLQRGVPSRFSGSGSGTDFTLTISSLQPEDFASYYCQQYNSYPLTFGGGTRVEIK
B3: YANG-1119 (antibody, V domains shown)
VH: EVQLVESGGGLVKPGGSLRLSCAASGFTFSSYSMNWVRQAPGKGLEWVSSISTGSSYIFYADSVKGRFTISRDNAKNSLYLQMNSLRAEDTAVYYCAKTGDLPFFDYWGQGTLVTVSS
VL: QSALTQPASVSGSPGQSITISCTGTSSDVGRYNYVSWYQQHPGKAPKLMIYEVSNRPSGVSNRFSGSKSGNTASLTISGLQAEDEADYYCSSYTSSSTMVFGGGTKLTVL
B4: YANG-1117 (antibody, V domains shown)
VH: B3 VH with M34V, A97V
VL: B3 VL with S26R, S54T, S95N, S96N
B5: YANG-1113 (antibody, V domains shown)
VH: B3 VH with I70M, L113P
VL: B3 VL
B6: YANG-1116 (antibody, V domains shown)
VH: B3 VH with A23E, T28N, S30R, S33A, M34L, Y80S
VL: B3 VL with S91I
B7: YANG-1114 (antibody, V domains shown)
VH: B3 VH with Q3H, G8V
VL: B3 VL
B8: YANG-1115 (antibody, V domains shown)
VH: B3 VH
VL: B3 VL with T108S
B9: YANG-1118 (antibody, V domains shown)
VH: B3 VH with S33A, M34L, N77H, Y80S
VL: B3 VL with S91I
B10: IMPI-055 (antibody, V domains shown)
VH: QVQLVQSGAEVKKPGASVKVSCKASGYTFTSYDINWVRQATGQGLEWMGWMNPNSGNTGYAQKFQGRVTMTRDTSINTAYMELSSLRSEDTAVYFCARGGRYCSDVTCYSGEPFDYWGQGTLVTVSS
VL: EIMLTQSPDFQSVTPKEKVTITCRASQSIGSSLHWYQQKPDQSPKLLIKFASQSISGVPSRFSGSGSGTDFTLTINSLEAEDAAAYYCHQSSSLPHTFGPGTKVEIK
B11: IMPI-059 (antibody, V domains shown)
VH: EVQLVESGGGLIQPGGSLRLSCAASGFTVSSIYMSWVRQAPGKGLEWVSIIYSRGSTDYADSVKGRFTISRDISKNTLYLQMNSLRAEDTAVYYCARDGTMVRGVHAFDIWGQGTMVTVSS
VL: DIQMTQSPPSLSASIGDRVTITCQASQDISNYLNWYQQKPGKAPKLLIYDASNLETGVPSRFSGSGSGTDFTLTISNLQPEDIVTYYCQQYDNLPSSFGQGTKLEIK
B12: YANG-1111 (antibody, V domains shown)
VH: EVQLVESGGGLIQPGGSLRLSCAASGFTFSSYSINWVRQAPGKGLEWVSFISGSSTTIYYADSVKGRFTISRDSAKNSLYLQMNSLRDEDTAVYYCARGLRSSIAPRPDYFDSWGQGILVTVSS
VL: SYVLTQPPSVSVAPGKTARITCGGNNIGSKGVHWYQQKPGQAPVLVIYYDSDRPSGIPERFSGSNSGNTATLTISRVEAGDEADYSCQVWDSSSDHPVFGGGTKLTVQ
B13: IMPI-054 (antibody, V domains shown)
VH: EVQLVESGGGLIQPGGSLRLSCAASGLTVSSNYMSWVRQAPGKGLEWVSIIYSGGSTYYADSVKGRFTISRDNSKNTLYLQMNSLRAEDTAVYYCARLGGYYYYGMDVWGQGTTVTVSS
VL: DIQMTQSPSSLSASVGERVTITCQASQDIRNYLNWYQKKPGKAPKLLIYDSSNLETGVPSRFSGSGSGTDFTFTISSLQPEDIATYYCQQYDNLPITFGQGTRLEIK
B14: IMPI-042 (antibody, V domains shown)
VH: B13 VH
VL: B13 VL with S65G
B15: YANG-1108 (antibody, V domains shown)
VH: QVQLVESGGGVVHPGRSLRLSCVVSGFTFSGYGMYWVRQAPGKGLEWVAVISKDGSDKYYADSVKGRFTISRDNSKNTLNLQMNSLRAEDTAVFYCAKERTFQGSGSYYNNYFYYGMDVWGQGTTVTVSS
VL: AIQLTQSPSSLSASVGDRVTITCRASQGISSALAWYQQKPGKAPNLLIYDASSLESGVPSRFSGSGFGTDFTLTINSLQPEDFASYYCQQFKSYPLTFGGGTKVEIK
B16: YANG-1110 (antibody, V domains shown)
VH: QVQLAESGGGVVQPGRSLRLSCVVSGFTFSNYGMHWVRQAPGKGLEWVVFISNDGSNEDFVDSVKGRFTISRDNSKNTLYLQMNSLRAEDTAVYYCAKGGYFYGSGNYYYYYGMDVWGQGTTVTVSS
VL: QPVLTQSSSASASLGSSVKLTCTLSSVHSNHIIAWHQQQPGKAPRYLMKLEGSGRYSKGSGVPDRFSGSSSEADRYLTISNLQSEDEADYYCETWDNNTYVFGSGTKVTVL
B17: IMPI-029 (antibody, V domains shown)
VH: EVQLVESGGGLIQPGGSLRLSCAASGVTVSSNYMNWVRQAPGKGLEWVSVIYSGGSTYYADSVKGRFTISRDNSKNTLFLQMNSLRAEDSAVYYCARDLGPYGVDVWGQGTTVTVSS
VL: DIQLTQSPSFLSASVGDRVTITCWASQGISSYLAWYQQKPGKAPKLLIYAASTLQSGVPSRFSGSGSGTEFTLTISSLQPEDFATYYCQELNSYPLTFGQGTRLEIK
B18: YANG-1109 (antibody, V domains shown)
VH: EVQLVESGGGLIQPGGSLRLSCGVSGLTVSRNYMNWVRQAPGKGLEWVSVIYSGGSTFYADSVKGRFTISRDNSKNTLYLQMISLRAEDSGVYYCAREGFGMDVWGQGTTVTVSS
VL: B17 VL with S31N, A50S, S77N, E81A, F83I, E90L, Y94H, L96C, T97S, R103K
B19: IMPI-052 (antibody, V domains shown)
VH: B17 VH with W47G, S56T, F79Y, S90T, L99T, G100V, P101V, V104M
VL: B17 VL with A50T, E90Q, Q100G, R103K, L104V
B20: IMPI-005 (antibody, V domains shown)
VH: B17 VH with V27F
VL: B17 VL
B21: IMPI-037 (antibody, V domains shown)
VH: not shown
VL: B17 VL with S30N, A84T, E90Q, L91F, S93D, L96R, Q100P, R103K, L104V
B22: IMPI-037 (antibody, V domains shown)
VH: not shown
VL: B17 VL with S30N, A84T, E90Q, L91F, S93D, L96R, Q100P, R103K, L104V
B23: IMPI-047 (antibody, V domains shown)
VH: B17 VH with V27F, F79Y, A87T, S90T, G100V, P101A, V104M
VL: B17 VL with L46V, E90L, Y94N, Q100G, R103K, L104V
B24: IMPI-017 (antibody, V domains shown)
VH: B17 VH with S25A, V27L, A40V, F79Y, S90T, P101T, Y102L, V104M
VL: B17 VL with S31T, E90Q, P95L, L96P, R103K, L104V
B25: IMPI-005 (antibody, V domains shown)
VH: B17 VH with V27F
VL: B17 VL
B26: IMPI-021 (antibody, V domains shown)
VH: B17 VH with N35S, Y58F, F79Y, S90T, G100S, P101Y, V104M
VL: B17 VL with R61K, E90Q, L96C, T97S, R103K
B27: IMPI-056 (antibody, V domains shown)
VH: B17 VH with V27L, G44K, Y58F, K64R
VL: B17 VL with E90Q
B28: IMPI-002 (antibody, V domains shown)
VH: B17 VH with N35S, W47G, F79Y, S90T, L99T, G100V, P101V, V104M
VL: B17 VL with E90Q, Q100G, R103K, L104V
B29: IMPI-021 (antibody, V domains shown)
VH: B17 VH with N35S, Y58F, F79Y, S90T, G100S, P101Y, V104M
VL: B17 VL with R61K, E90Q, L96C, T97S, R103K

Legend:
[1] = target: T1, RBD domain of the spike protein of SARS-CoV-2 virus (Acro Biosystems SPD-C52H3) (SARS-CoV-2, UniProt P0DTC2 319-537); assay: Affinity (SPR) by Octet; antigen not named, taken from the epitope column
T1 construct: domain: RBD domain

[2] = target: SARS-CoV-2 spike protein receptor binding domain (RBD) (SARS-CoV-2, UniProt P0DTC2 319-541)
[3] = target: RBD domain of the spike protein of SARS-CoV-2 virus (Acro Biosystems SPD-C52H3) (SARS-CoV-2, UniProt P0DTC2 319-537)

| Binder | Kd [1] | IC50 [3] | other results |
| --- | --- | --- | --- |
| B1 | < 0.1 nM | – | – |
| B2 | – | – | Kd [2]: 191 nM |
| B3 | < 0.1 nM | – | – |
| B4 | < 0.1 nM | – | – |
| B5 | < 0.1 nM | – | – |
| B6 | < 0.1 nM | – | – |
| B7 | < 0.1 nM | – | – |
| B8 | < 0.1 nM | – | – |
| B9 | < 0.1 nM | – | – |
| B10 | – | 3.39 nM | – |
| B11 | – | 2.02 nM | – |
| B12 | < 0.1 nM | – | – |
| B13 | – | 2.28 nM | – |
| B14 | – | 5.54 nM | – |
| B15 | < 0.1 nM | – | – |
| B16 | < 0.1 nM | – | – |
| B17 | – | 1.26 nM | – |
| B18 | < 0.1 nM | – | – |
| B19 | – | 4.85 nM | – |
| B20 | – | – | Kd [2]: 24.9 nM |
| B21 | – | – | Kd [2]: 22.3 nM |
| B22 | – | 7.76 nM | – |
| B23 | – | 3.36 nM | – |
| B24 | – | 0.832 nM | – |
| B25 | – | 3.18 nM | – |
| B26 | – | – | Kd [2]: 14.7 nM |
| B27 | – | 1.93 nM | – |
| B28 | – | 8.15 nM | – |
| B29 | – | 4.87 nM | – |
